{"source": "patent US10588972B2", "about": "“Phthalocyanine probes and uses thereof” (LI-COR, INC., priority 2014, dated 2020)", "format_in_all_cases": "cell-based", "key": {"[1]": {"system": "A431 cells", "assay": "Caspase 3/7 assay, doses of IRDye 700DX-labeled EGF (Table 4)", "description": "A431 cells were treated with IRDye® 700DX-labeled EGF at a concentration of about 0.1-1 μM for about 8 minutes and irradiated at about 32 J/cm^2.\nBriefly, 150,000 cells were plated and incubated overnight at 37° C., 5% CO2. About 1 ml of the probe was added to the appropriate treatments. The cells were rinsed after the incubation period and imaged. The cells were irradiated with a small LED apparatus. The cells were further incubated at 37° C., 5% CO2, and then imaged at 2-3 hours post irradiation. The cells were then harvested and resuspended in 250 μl PBS. The cells were counted in NC-100™ NucleoCounter® (ChemoMetec A/S; Allerod, Denmark). The cells were analyzed according to manufacturer's protocol to perform the caspase3/7 assay (ImmunoChemistry Technologies, LCC, Bloomington, Minn.). NC indicates negative control, e.g., no probe."}, "[2]": {"system": "HTB-186 cells", "assay": "Caspase 3/7 assay (Example 10, Table 8)", "settings": "32 J/cm^2, probe about 5 hours, 20 hours post irradiation; 700DX-RGD and 700DX-EGF 500 nM", "description": "(§1) This example illustrates the ability of IRDye® 700DX small molecule conjugates to induce apoptosis in cells, e.g., cancer cells. In this study HTB-186 cells (a desmoplastic cerebellar medulloblastoma cell line) were treated with IRDye® 700DX small molecule conjugates (IRDye® 700DX labeled chlorotoxin, anti-EGFR Affibody®, RGD peptide and EGF ligand). Apoptosis was measured by evaluating caspase 3/7 activity and mitochondrial membrane potential. […]\nThe caspase 3/7 assay was used to measure caspase 3/7 activity in the cells from the treatments listed above. […] Upon activation, the caspases cleave the substrate, and in turn, a fluorescence signal is emitted. […] The fluorescence can be detected by, for example, flow cytometry, fluorescence microscopy, and fluorescence-based image cytometry.\nTo determine whether the treated cells are undergoing apoptosis, a caspase 3/7 assay and mitochondrial potential assay were performed. […] Table 8 below provides cells number, % viability, JC-1% shift, and % late apoptotic and dead cells as determined by caspase 3/7 assay."}, "[3]": {"system": "A431 cells", "assay": "Cytotoxicity and localization of antibody probe versus small protein ligand probe after irradiation (Example 4)", "description": "Both probes can bind EGFR and had approximately 2 dye molecule per conjugate molecule. It was assumed that the affinity for the receptor will be different for the antibody (generally pM), compared to the small protein (nM). Although the probe doses were different, the incubation times were the same at only 10 min. After incubation, the probes were rinsed from the cells. FIGS. 7A and 7B illustrates A431 cells that were incubated with IRDye 700DX-panitumumab or IRDye 700DX-EGF, respectively and thereafter irradiated.\nThus, upon irradiation, the production of singlet oxygen occurred at the cell surface. Typically, the EGF ligand is internalized after binding the EGF receptor."}, "[4]": {"system": "HTB-186 cells", "assay": "JC-1 mitochondrial membrane potential assay (Example 10, Table 8)", "settings": "32 J/cm^2, probe about 5 hours, 20 hours post irradiation; 700DX-RGD and 700DX-EGF 500 nM", "description": "as §1\nIn this study a mitochondrial membrane potential assay was performed on cells from treatments 1-8 to determine whether the treated cells underwent apoptosis. […] As JC-1 dye accumulated in mitochondria, its fluorescence emission shifts from green (about 529 nm) to red (about 590 nm). The presence of red fluorescence due to JC-1 aggregate formation corresponds to regions of high mitochondrial polarization. Depolarized mitochondria are indicated by green fluorescence of the JC-1 monomers. A detectable decrease in the red/green fluorescence intensity ratio indicates mitochondrial depolarization, and thus, apoptosis. In a membrane potential assay, cells are incubated with the JC-1 dye and fluorescence is detected by, for example, flow cytometry, fluorescence microscopy, and fluorescence-based image cytometry. […]"}, "[5]": {"system": "A431 cells", "assay": "VB-48 assay: vitality, viability and necrosis of treatments 1-10 (Table 3)", "settings": "irradiated (I) 32 J/cm^2; RGD 0.5 μM, EGF 0.5 μM, NHSe 5 μM, Pan ~0.1 μM", "description": "Briefly, A431 cells were labeled with respective probes for specific treatments (listed below); cells were rinsed and evaluated for labeling. The test include the following treatments: […], treatments 3-4 of EGF-IRDye® 700DX at 0.5 μM and radiation, treatments 5-6 of IRDye® 700DX NHSe at 5 μM and radiation, treatments 7-8 of panitumumab-IRDye® 700DX at about 0.1 μM and radiation, treatment 9 of a negative control with no probe and no irradiation, and treatment 10 of RGD-IRDye® 700DX and no irradiation. The probes were incubated for about 10 minutes and with a longer period of about 20 minutes for the RGD probe. The cells were monitored with microscopy and morphology was examination 24 hours post treatment.\nLow binding was expected for the RGD probe due to the low level of integrin receptors on A431 cells. […] By 3 hours post-irradiation all treatments except RGD (Treatment 1) show significant cytotoxicity. Vitality, viability and necrosis assays such as a VB-48 assay and JC-1 assay were performed."}, "[6]": {"settings": "0.1 μM, Irradiation about 32 J/cm^2"}, "[7]": {"settings": "0.25 μM, Irradiation about 32 J/cm^2"}, "[8]": {"settings": "0.5 μM, Irradiation about 32 J/cm^2"}, "[9]": {"settings": "1 μM, Irradiation about 32 J/cm^2"}}}
{"molecule": "700DX-EGF (conjugate, UniProt P01133 23-1207, looked up, Pro-epidermal growth factor IRDye 700DX conjugate) Pro-epidermal growth factor: PQHWSCPEGTLAGNGNSTCVGPAPFLIFSHGNSIFRIDTEGTNYEQLVVDAGVSVIMDFHYNEKRIYWVDLERQLLQRVFLNGSRQERVCNIEKNVSGMAINWINEEVIWSNQQEGIITVTDMKGNNSHILLSALKYPANVAVDPVERFIFWSSEVAGSLYRADLDGVGVKALLETSEKITAVSLDVLDKRLFWIQYNREGSNSLICSCDYDGGSVHISKHPTQHNLFAMSLFGDRIFYSTWKMKTIWIANKHTGKDMVRINLHSSFVPLGELKVVHPLAQPKAEDDTWEPEQKLCKLRKGNCSSTVCGQDLQSHLCMCAEGYALSRDRKYCEDVNECAFWNHGCTLGCKNTPGSYYCTCPVGFVLLPDGKRCHQLVSCPRNVSECSHDCVLTSEGPLCFCPEGSVLERDGKTCSGCSSPDNGGCSQLCVPLSPVSWECDCFPGYDLQLDEKSCAASGPQPFLLFANSQDIRHMHFDGTDYGTLLSQQMGMVYALDHDPVENKIYFAHTALKWIERANMDGSQRERLIEEGVDVPEGLAVDWIGRRFYWTDRGKSLIGRSDLNGKRSKIITKENISQPRGIAVHPMAKRLFWTDTGINPRIESSSLQGLGRLVIASSDLIWPSGITIDFLTDKLYWCDAKQSVIEMANLDGSKRRRLTQNDVGHPFAVAVFEDYVWFSDWAMPSVMRVNKRTGKDRVRLQGSMLKPSSLVVVHPLAKPGADPCLYQNGGCEHICKKRLGTAWCSCREGFMKASDGKTCLALDGHQLLAGGEVDLKNQVTPLDILSKTRVSEDNITESQHMLVAEIMVSDQDDCAPVGCSMYARCISEGEDATCQCLKGFAGDGKLCSDIDECEMGVPVCPPASSKCINTEGGYVCRCSEGYQGDGIHCLDIDECQLGEHSCGENASCTNTEGGYTCMCAGRLSEPGLICPDSTPPPHLREDDHHYSVRNSDSECPLSHDGYCLHDGVCMYIEALDKYACNCVVGYIGERCQYRDLKWWELRHAGHGQQQKVIVVAVCVVVLVMLLLLSLWGAHYYRTQKLLSKNPKNPYEESSRDVRSRRPADTEDGMSSCPQPWFVVIKEHQDLKNGGQPVAGEDGQAADGSMQPTSWRQEPQLCGMGTEQGCWIPVSSDKGSCPQVMERSFHMPSYGTQTLEGGVEKPHSLLSANPLWQQRALDPPHQMELTQ", "values": [{"measurement": "% Healthy", "setting": "[1]; [6]", "value": 72, "unit": "%"}, {"measurement": "% Necrotic", "setting": "[1]; [6]", "value": 10, "unit": "%"}, {"measurement": "Cells/mL", "setting": "[1]; [6]", "value": "4.6 × 10^5 Cells/mL"}, {"measurement": "Early % Apoptotic", "setting": "[1]; [6]", "value": 8, "unit": "%"}, {"measurement": "Late % Apoptotic", "setting": "[1]; [6]", "value": 11, "unit": "%"}, {"measurement": "% Healthy", "setting": "[1]; [7]", "value": 61, "unit": "%"}, {"measurement": "% Necrotic", "setting": "[1]; [7]", "value": 16, "unit": "%"}, {"measurement": "Cells/mL", "setting": "[1]; [7]", "value": "4.8 × 10^5 Cells/mL"}, {"measurement": "Early % Apoptotic", "setting": "[1]; [7]", "value": 5, "unit": "%"}, {"measurement": "Late % Apoptotic", "setting": "[1]; [7]", "value": 18, "unit": "%"}, {"measurement": "% Healthy", "setting": "[1]; [8]", "value": 52, "unit": "%"}, {"measurement": "% Necrotic", "setting": "[1]; [8]", "value": 17, "unit": "%"}, {"measurement": "Cells/mL", "setting": "[1]; [8]", "value": "4 × 10^5 Cells/mL"}, {"measurement": "Early % Apoptotic", "setting": "[1]; [8]", "value": 6, "unit": "%"}, {"measurement": "Late % Apoptotic", "setting": "[1]; [8]", "value": 26, "unit": "%"}, {"measurement": "% Healthy", "setting": "[1]; [9]", "value": 52, "unit": "%"}, {"measurement": "% Necrotic", "setting": "[1]; [9]", "value": 15, "unit": "%"}, {"measurement": "Cells/mL", "setting": "[1]; [9]", "value": "4 × 10^5 Cells/mL"}, {"measurement": "Early % Apoptotic", "setting": "[1]; [9]", "value": 9, "unit": "%"}, {"measurement": "Late % Apoptotic", "setting": "[1]; [9]", "value": 24, "unit": "%"}, {"measurement": "% Healthy", "setting": "[1]; 1 μM, No Irradiation", "value": 87, "unit": "%"}, {"measurement": "% Necrotic", "setting": "[1]; 1 μM, No Irradiation", "value": 3, "unit": "%"}, {"measurement": "Cells/mL", "setting": "[1]; 1 μM, No Irradiation", "value": "5.4 × 10^5 Cells/mL"}, {"measurement": "Early % Apoptotic", "setting": "[1]; 1 μM, No Irradiation", "value": 6, "unit": "%"}, {"measurement": "Late % Apoptotic", "setting": "[1]; 1 μM, No Irradiation", "value": 4, "unit": "%"}, {"measurement": "mode of cell death", "setting": "[1]; irradiating light at about 32 J/cm^2", "value": "undergo apoptosis"}, {"measurement": "Caspase 3 % late apoptotic + dead cells", "setting": "[2]", "value": 46, "unit": "%"}, {"measurement": "dead irradiated cells", "setting": "[3]; 10 min incubation, panitumumab probe about 0.1 μM, EGF probe 0.5 μM, 24 hours post irradiation", "value": 36, "unit": "%"}, {"measurement": "necrotic cells after irradiation", "setting": "[3]; irradiation 24 J/cm^2 (figure legend)", "value": 36, "unit": "%"}, {"measurement": "JC-1 % shift", "setting": "[4]", "value": 42, "unit": "%"}, {"measurement": "% Healthy", "setting": "[5]", "value": 60, "unit": "%"}, {"measurement": "% Necrotic", "setting": "[5]", "value": 20, "unit": "%"}, {"measurement": "Cells/mL", "setting": "[5]", "value": "3.4 × 10^5 Cells/mL"}, {"measurement": "Est % Viability", "setting": "[5]", "value": "60-70%"}, {"measurement": "Low % Vitality", "setting": "[5]", "value": 19, "unit": "%"}]}
